Reference: publication PMC10723116

Target: H3K9me3 chromatin arrays (12 x 200 bp x 601 oligonucleosomes with H3K9-trimethylated histone H3) (Xenopus | not stated) (UniProt P84233)

## HP1α-K42 (K42Q mutant of human HP1α) (from UniProt P45973 1-191) (natural protein)
  degree of association of H3K9me3 chromatin arrays (40 nM) with 5 μM protein, chromatin association assay: 20%
